From patent US20130058955A1

Key:
[1] = target: K63-linked diubiquitin (Boston Biochem) (human) (UniProt P0CG48); assay: western blot, IgG 1 µg/mL, two-fold dilutions of K63-linked diubiquitin 1 µg to 16 ng
[2] = target: K11 polyubiquitin linkages in 293T cell lysates (human) (UniProt P0CG48); assay: IP from 293T lysate (empty vector), 7 M urea, mass spec AQUA; input 1085 pmol
[3] = target: K48 polyubiquitin linkages in 293T cell lysates (human) (UniProt P0CG48); assay: IP from lysate of 293T cells over-expressing LUBAC, 7 M urea, mass spec AQUA; input 12420 pmol

| Substance | limit of detection [1] | pmol of ubiquitin linkage in the immunoprecipitate [2] | pmol of ubiquitin linkage in the immunoprecipitate [3] |
| --- | --- | --- | --- |
| Apu3.A8 anti-K63 IgG (antibody) | 62 ng |  |  |
| isotype control IgG (unrelated human kappa IgG1 antibody) |  | 0 pmol | 1 pmol |
